Assay: soluble on expression in E. coli; label from the status in PepcDB or PDB records

Sequence	soluble on expression in E. coli
MSLDYGINFWSDNDFIIEDGQVKINYKTKPAIIDIVKKVREEGYRGPLLLRFPHLIKKQVDKIFTHFETSIKQYHYKGQFKAVFPLKVNQFPNFVLPLVELSQNRCYGLEAGSKAELIIAMAYTNKGSPITVNGFKDKEMISLGFIAANMGHEITLTIEGLNELETIIEVAEEMGKPCPNIGLRIRLHSSGIGIWAKSGGINSKFGLTSTELLEGIRLLEKHKLIEKFTMIHFHIGSQISDISPLKKAMREAGNIYAELRKMGAKNLKSVNIGGGLAVEYTQHEGSPNRNYTLDEFAGDVVFSLKEIAKNKKEPEPDIYIESGRYIAASHALLVAPVLELFSQEYDEKALHLKDKNPQLIEELNELYNTVNEKYAIEYLHDSLDHMESLLTLFDLGYIDLQDRSNTEILVHLIIKKVIKILKHKNHSDIIRIQEQVQERYLLNCSFFQSLPDYWGLEQSFPVMPLDRLNKRPTRSASLWDITCDSDGEIGFDLNKPLFLHDVDVTTEEYFLGFFLVGAYQEVLGMRHNLFTHPTELSVEFEEDGTHSVTNLLEAQTILDVLDDLDYDTKEIERRLKQRIEDSELIDDETRKEVLGQLYVMLSENGYLRTITNGEGHHHHHH	soluble
MFKGIVQGAGIIKKISKNDDTQRHGITFPKDILESVEKGTVMLVNGCSLTVVRISGDVVYFDIDQAINTTTFRELEVGNKVNLEVRPEFGSLLGKGALTGNIKGVATVDNITEEEDRLKVYIKIPKDLIENILSEDHIGINGVSHSIEEISDDIIFINYPKNLSITTNLGTLEKGSDVNVETLNVSNEWD	soluble
MDERDALRISREIAGEVRKAIASMPLRERVKDVGMGKDGTPTKAADRVAEDAALEILRKERVTVVTEESGVLGEGDVFVALDPLDGTFNATRGIPVYSVSLCFSYSDKLKDAFFGYVYNLATGDEYYADSSGAYRNGERIEVSDAEELYCNAIIYYPDRKFPFKRMRIFGSAATELCFFADGSFDCFLDIRPGKMLRIYDAAAGVFIAEKAGGKVTELDGESLGNKKFDMQERLNIVAANEKLHPKLLELIK	soluble
MSLDVALAPPGPLASGGLRVTALGGISEIGRNMTIFEHLGRLLIIDCGVLFPGHDEPGVDLILPDLRHIEDRLDDIEALVLTHAHEDHIGAIPFLLKLRSDIPVVGSKFTLALVAAKCREHRIKPVFVEVVGGQSSRHGVFECEYFAVNHSIPDALTIAVYTGAGTVLHTGDIKLDQLPLDGRPTDLPGMSRLGDAGVDLFLCDSTNAEIPGVGPSESEVGPTLHRLIQGADGRVIVACFASNVDRVQQVIDAAVALGRRVSFVGRSMVRNMSIARDLGFLRVDDSHMIDIAAAEMMAPEQVVLITTGTQGEPMSALSRMSRGEHQSITLTSGDLVVLSSSLIPGNEEAVYGVIDALAKIGARVVTNAQARVHVSGHAYAGELLFLYNGVRPRQVMPVHGTEGHHHHHH	soluble
MSDILLGKLATEFKTVKAMVEVYCHDHHGTKDALCSECRELLEYAEVRLDRCPYGEEKPTCNKCPIHCYKPEPKEQMRLVMRYSGPRMLLKHPILAVRHLLHEKREVPEKPAANASNRHKRINAERDT	not soluble
MVEKPVVIKFGGTSVRYAFEEALELVAKLHENMKIIVVVSALAGVTDCLLRLAKGDKSALLEIDEIHEELSQELNVQLEHLIHQLKKTINSKSSFPSEKAFIDEIASFGERFSAKLFSEGLKILGITARPVDSKDVLFVKGEFGNAEVEFKKSAQGVDVLYRMLRRGIVPVVTGYYGNLNGFRATFGRGGSDYSATSIASLVNAKAVLIMSDVEGIYTADPKLVPPARLIHYISYKEAKTAAKLGMKVLHPRAIDPVEGKIPVILGKTRDLKFGTLISHESQGIPIVTHKLLENHAEISVVSVKTNIPLPYEVYEEGDLYFKIKTSKDQFLEVLRDVHRRVVENENLHSSHDGELWTWVLEHHHHHH	not soluble
MVDSKKRPGKDLDRIDRNILNELQKDGRISNVELSKRVGLSPTPCLERVRRLERQGFIQGYTALLNPHYLDASLLVFVEITLNRGAPDVFEQFNAAVQKLEEIQECHLVSGDFDYLLKTRVPDMSAYRKLLGETLLRLPGVNDTRTYVVMEEVKQSNRLVIKTR	not soluble
MSLHDYCLPCPTSLSGIAEVNPMSKPLVRWPINPLRTAVIVVDMQKVFCEPTGALYVKSTADIVQPIQKLLQAARAAQVMVIYLRHIVRGDGSDTGRMRDLYPNVDQILARHDPDVEVIEALAPQSDDVIVDKLFYSGFHNTDLDTVLRARDVDTIIVCGTVTNVCCETTIRDGVHREYKVIALSDANAAMDYPDVGFGAVSAADVQRISLTTIAYEFGEVTTTAEVIRREGHHHHHH	not soluble
MRKMADPLVPKEALEWFKSKGIKPGFDYRDVWKEEQANAFTVAKMLNADLLVEVKQLVEDAIGQGQTFEQFRDILKPLLVKSGWWGVQTMQDPLTDETKLVQLGSEGRIKTIYKTNMRTARSAGQWERIQRTKRTMPYLLYQLGPSEQHRIEHLKWNNTLLPADDPWWDVHMTPNGWGCKCWIRQVSQYEADKLIAAGTVKTTVPASKNKQWVNRRTGEVEVLPEGIDPGWNYNPGKNREKMLAADLALKESRMRQTLANGS	soluble
MIPGGNTLKETAVVPAATGYDRIAFIYDIIAGIASFDQINKSQLAFLSSIPTQSTCLILGGGTGYFLQKLLEQNATIQVTYVDASQKMIEFAQKRIAEKKPYDAHRVTFVCKQVNVFEFDTYDSIVCNYFLDLFEEADVTMLIKKFKKHLKKDGILYITDFTMPIRTGIIEWSAKAGLKVLYWFFKRTTSLSNNQLPDIESVVLKQDFIKLHSADFFKGILRCSLYR	not soluble
MGSDKIHHHHHHMDAILECCAGLDVHQETVVACILFGSLESKPKKTIRTFSTTTSDLLALTDWLEEEKCSHVAMESTGVYWKPVWNILEAGSFQLSLANAQRIKNLPGRKTDVKDAEWIAQLLRSGLIQGSFVPPAEIRDLRDLTRYRKKLLQDATQEKNRIHKILQDANIKITTYISDIFGVSGRNIMESLMDGEVITVEKLNQMVKGKVKSKIPGLADALNHRLRSHHRDMIRYSWSHLKFLEQSLINVEQKISECMAPYQQEVELLTSIPGINQTSSAIMIAELGADMSVFPTDSQLSSWAGVSPGNNESAGKKKEGVFPQETKR	not soluble
MKKIGIIGGTTPESTLYYYKKYIEISREKFEKYFYPELIIYSINFKEFFQNPEGWEGRKKILINAAKALERAGAELIAFAANTPHLVFDDVQREVNVPMVSIIDAVAEEILKRGVRKVLLLGTKTTMTADFYIKTLEEKGLEVVVPNDEEKEELNRIIFEELAFGNLKNKEWIVRLIEKYRESEGIEGVILGCTELPLAIKQGDVSVEVFDSAEIHMRKLIELASE	soluble
MEIALERIYGHRLALPQVGAALLFAQEAPPALLLVPEARLRRYRDLSAFGAKVYVNPGLEALEEKALFVLSYEEALSPFPEDPEAWRLLLEVGRAYPREALLSRLLKLGYARDEDYRVLGEVVELGEVRLEFFGDELERLVVRGEERRRHVLLPKPGKAEGFTSKKVLHFPGPVYLDTPALAPKALWPLLAGRPWVALGGGVELPPLELGARPLPPYRGSLKALEKDLARWLAEGKRVHLFVGHARTLEYLKRRLQAFSPLILDRFPGPKGRLALLPGDFEGGAEWGEWVLLTEALVFATGGVRARVRVGEGLSDPGALSPGDYLIHPEHGVGQYLGLETREVLGVKRDYLVLRYKGEGKLYLPVEQLPLLKRHPGTTDDPPELSSLGKNEWQRAKERARKDVEELAGRLLVLQAKRKATPGRAFPPLPEWDPLVEKGFPYELTPDQKRALEEVLRDLESPHPMDRLVSGDVGFGKTEVALRAAHRVVGHGAQVAFLGPTTLLAEQHGKTFRERFQGLPVRVAVLSRFTPPKEEEAILKGLAEGTVDIVIGTHRLLQEDVRFRDLGLLIVDEEHRFGVAQKERIRELKAEVDTLYLSATPIPRTLYSALVGLKDLSSIQTPPPGRKPIKTFLAPFDPLLVREAILFELERGGKVFYVHDRVASIEARRRFLENLVPEARIGVVHGQMPESLIEETMLLFAEGAYDVLLATTIIEAGLDVPEANTILIERADRLGLATLYQLRGRVGRREEEAYAYLFHPPRLTEAAEKRLAAIADLSDLGSGHLLAERDMEIRGVGNLLGPEQHGHIRALSLEVYTELLEEAIRKLKGEAKEERRHVTLDLALSARLPAEYVGSLEARSRYYSRFAEAKSLAELSRLVRELKERYGPLPEEAENFVALARLRLVAERKGVVSITEGLTHLEVVFPRYPLDYDARGLKGLPYRVELTQYPPGFRLEKKGLRPRDYPEALMEVLYLFADL	soluble
GDQRFDVLITGGTLVDVVTGELRPADIGIVGALIASVHEPASRRDAAQVIDAGGAYVSPGLIDTHMHIESSMITPAAYAAAVVARGVTTIVWDPHEFGNVHGVDGVRWAAKAIENLPLRAILLAPSCVPSAPGLERGGADFDAAILADLLSWPEIGGIAEIMNMRGVIERDPRMSGIVQAGLAAEKLVCGHARGLKNADLNAFMAAGVSSDHELVSGEDLMAKLRAGLTIELRGSHDHLLPEFVAALNTLGHLPQTVTLCTDDVFPDDLLQGGGLDDVVRRLVRYGLKPEWALRAATLNAAQRLGRSDLGLIAAGRRADIVVFEDLNGFSARHVLASGRAVAEGGRMLVDIPTCDTTVLKGSMKLPLRMANDFLVKSQGAKVRLATIDRPRFTQWGETEADVKDGFVVPPEGATMISVTHRHGMAEPTTKTGFLTGWGRWNGAFATTVSHDSHNLTVFGGNAGDMALAANAVIGTGGGMAVASEGKVTAILPLPLSGLVSDAPLEEVARAFEDLREAVGKVVEWQPPYLVFKACFGATLACNIGPHQTDMGIADVLTGKVMESPVIEV	not soluble
MRHDGRQHDELRPITFDLDFISHPEGSVLITAGNTKVICNASVEDRVPPFLRGGGKGWITAEYSMLPQATNQQTIQESSKGKISGRTMEIQRLIGRALRAVVDLEKLGERTIWIDCDVIQADGGTRTASITGAFLAMAIAIGKLIKAGTIKTNPITDFLAAISVGIDKEQGILLDLNYEEDSSAEVDMNVIMTGSGRFVELQGTGEEATFSREDLNGLLGLAEKGIQELIDKQKEVLGDSLPELK	soluble
MTVRVGDPELVLDPYDYDFHEDPYPYYRRLRDEAPLYRNEERNFWAVSRHHDVLQGFRDSTALSNAYGVSLDPSSRTSEAYRVMSMLAMDDPAHLRMRTLVSKGFTPRRIRELEPQVLELARIHLDSALQTESFDFVAEFAGKLPMDVISELIGVPDTDRARIRALADAVLHREDGVADVPPPAMAASIELMRYYADLIAEFRRRPANNLTSALLAAELDGDRLSDQEIMAFLFLMVIAGNETTTKLLANAVYWAAHHPGQLARVFADHSRIPMWVEETLRYDTSSQILARTVAHDLTLYDTTIPEGEVLLLLPGSANRDDRVFDDPDDYRIGREIGCKLVSFGSGAHFCLGAHLARMEARVALGALLRRIRNYEVDDDNVVRVHSSNVRGFAHLPISVQAR	not soluble
MLTFVSPVFGAPKKRKWFSKLSGKQLCCFRCVSCLQVEQPSRSHPNYWRNIAREVNKTLKEHSLEANNPINVTDEDSSVFVDTTTDEREEGGPTFIQQSSRVQLDSAEISHSNSMTTDSHSLYQNNSPNSTGMEEEPSDYSVQFSTSWNPNTSWLQFPDLVESADIRRKTQEISKHQKEDVFKYYIDSENNLRPFHDAISPMHIFSKESETQTVSEPSAWENWHQLSQKGNEDSSSLDESLDDEWSEIDRWRPVAVELEGYNPKLTEDTSEEVRIEKNKLSKRREAVAWQKWFSTQQYNLSSELWERRIGVTGKDCDKNTSIYKQWLADMEQGLEP	not soluble
